A short description of the series: soluble on expression in E. coli; label from the status in PepcDB or PDB records.
Regarding “MGSDKIHHHHHHMMKIPKKIHQIYTKGIHDLPEEILVSVGKLKDLNPGWEYFFYDEKSIIGYIHKHYGKEMLNIYLSINPKYGVAKADLFRYLLIYIEGGVYLDIKSSCSIPLDQVIKDDCEILLCSWDNKECGCDRNMGIHKELGFLKCGEYQQWNIISASGSPYIKSAIDEVIHRLKTYKPWIYGVGMKGVLNTTGPVPFSVGIERINKTEFFHHEENYRNIGLKYRNVTEETIRKLNKNHYSKLKDSIVTLEGKDKLYYKLWLLFFYPLQRLKKNIINESKFVIRKMKRISRKTSQ”, the “soluble on expression in E. coli” value was “not soluble”. With “HHMAQANFGVVGMAVMGKNLALNVESRGYTVAIYNRTTSKTEEVFKEHQDKNLVFTKTLEEFVGSLEKPRRIMLMVQAGAATDATIKSLLPLLDIGDILIDGGNTHFPDTMRRNAELADSGINFIGTGVSGGEKGALLGPSMMPGGQKEAYDLVAPIFEQIAAKAPQDGKPCVAYMGANGAGHYVKMVHNGIEYGDMQLIAESYDLLKRILGLSNAEIQAIFEEWNEGELDSYLIEITKEVLKRKDDEGEGYIVDKILDKAGNKGTGKWTSESALDLGVPLPLITESVFARYISTYKDERVKASKVLSGPALDFSGDKKEVIEKIRKALYFSKIMSYAQGFAQLRKASEEFDWDLPYGTIAQIWRAGCIIRAEFLQNITDAFDKDSELENLLLDDYFVDITKRYQEAVRDVVSLAVQAGTPIPTFTSAISYYDSYRSENLPANLIQAQRDYFGAHTYERTDKAGIFHYDWYTED” the entry was “soluble”. As for “SMSRKRPPSDIHDSDGSSSSSHQSLKSTAKWAASLENLLEDPEGVKRFREFLKKEFSEENVLFWLACEDFKKMQDKTQMQEKAKEIYMTFLSSKASSQVNVEGQSRLNEKILEEPHPLMFQKLQDQIFNLMKYDSYSRFLKSDLFLKHKRTEE”, the “soluble on expression in E. coli” value is listed as “soluble”. With “MATIRIHDEANTTIENQEEVASFLDSQEVIYEQWDITRLPEHLSEKYDLTEEEKQQILDTFETEIKDISTRRGYKAQDVISLSDSNPKLDELLENFKREHHHTDDEVRFIVSGHGIFVIQGQDGTFFDVRLNPGDLISVPENIRHYFTLQEDRKVVAVRIFVTTEGWVPIYEKDSVNQLEHHHHHH” the entry was “not soluble”; with “IQRQMFPNIEVNYIDVRATYPGASPQEIEESILVKVEESIKDVTGIKKVVSRASRGSAYISIEVDVNADIKRVLDDVNQRIDTISNLPLGMEPINVYQVEWRQDVIEMGLVGDRPLEELKPIAKQIEDELLQLNNVMLVYLSAPEEEIAIEVDPLVLRKYDLTLNDVSNAIRRYSANFSAGEVKTNSGMIAVRIENQYYRGDEFRNIPVKLGANGAKVLLQDIATIKDGFTEEERYFEYSGQNAIYMSVEATRDQNIIPVAQSVRDYIEAKNKTLPSDVQLKILVDMTYYLNGRLDMMLK”, “not soluble”. To “MSTEIKTQVVVLGAGPAGYSAAFRCADLGLETVIVERYNTLGGVCLNVGCIPSKALLHVAKVIEEAKALAEHGIVFGEPKTDIDKIRTWKEKVINQLTGGLAGMAKGRKVKVVNGLGKFTGANTLEVEGENGKTVINFDNAIIAAGSRPIQLPFIPHEDPRIWDSTDALELKEVPERLLVMGGGIIGLEMGTVYHALGSQIDVVEMFDQVIPAADKDIVKVFTKRISKKFNLMLETKVTAVEAKEDGIYVTMEGKKAPAEPQRYDAVLVAIGRVPNGKNLDAGKAGVEVDDRGFIRVDKQLRTNVPHIFAIGDIVGQPMLAHKGVHEGHVAAEVIAGKKHYFDPKVIPSIAYTEPEVAWVGLTEKEAKEKGISYETATFPWAASGRAIASDCADGMTKLIFDKESHRVIGGAIVGTNGGELLGEIGLAIEMGCDAEDIALTIHAHPTLHESVGLAAEVFEGSITDLPNPKAKKK” belongs “soluble”; to “MDKRIENAMNELINTEIWSTGLYLSLQVYFEDERLPILSSWLNSQAQDNMNKVYQMMNRICHDGGCVVINEMKRDTHEWTTPLNALNELLEHEQYISRQVNTFLILCWNVSMSFHSFISGLYADRIYVSTAFMELLRILAKENERKLPYF”, “not soluble”. “MGSDKIHHHHHHEEAEAHQKPVEIQPETVKIARNSELTIVPLYTPYQKYLKASLKTDDPEMDKKYYAKYVLSYIDEIGEQEKFSTADLKGNFMLQSTSYEQELLNRIDTLMKQHDKIKEVITENYIAAHKILPKKKSTIFIVPSNSDFPTMSESLAGVTGAAYKDAFVLYLDQTFDKNVLAYTIAHEYHHLILHDTPDFKISSVLKSVIVEGKADAFADRIVKGVSPPWDVPMDNTTKKHVAGLVNNYETTFNDVTFGNEQKDIPRWSNYILGRDILNHYLKSNPNLSIKEWTYKDEHEILKDYKYQNILE”: the “soluble on expression in E. coli” value was “not soluble”.

In the case of “MRWFLLIVVSALFLSGCMPEIYTHASTPSTIIADNETHIAGRYAFVDVQVLDEYGLPVSGEDVSFYVDGAFLGEATTDTSGVARIGFFSPSEKTYTFTAVAGGVSRSFDVSFTKPKWLFIVWMAADNNLYYYSEDDLSEMRNASGSVSVVVVYDGIGIGDGMLVLDESGNFQAVVGTMGIDFNSGSYTNLEAWLEMILNQFDADHYALVIWDHGSAWIGDSYYISTKVIGYDDFQGTAIAVSNLRKALENALSGDKLDILGFDACLMGSLEVIYELRNTADYIVASSFNEPAEGWDYSFLGEIAPDSTPLDVARMIVDSYREYYSSDTYQNELSLAVYDTSQVEVFVSDLNLFISDLKADLSKVDAVYSDVVKSYIDDYNQTVLVDLGDFIDRWVSSSRITTAPDLSSVVVYSYGEIAGKTLSFPISIFMPESMSCYQDYQTDYQTLSFPYDTQWDEFLEYWLNQKGGLEHHHHHH”, the “soluble on expression in E. coli” value was “not soluble”. To “MGSDKIHHHHHHMIESIQELLQKEAQAVLNIPVTDAYEKAVELIVEQIHRKKGKLVTSGMGKAGQIAMNIATTFCSTGIPSVFLHPSEAQHGDLGILQENDLLLLISNSGKTREIVELTQLAHNLNPGLKFIVITGNPDSPLASESDVCLSTGHPAEVCTLGMTPTTSTTVMTVIGDILVVQTMKRTEFTIEEYSKRHHGGYLGEKSRKLCVK” belongs “not soluble”; to “MVLFSEDHIQETRRRGRIEVICGSMFSGKTEELIRRMKRAKFARQRVEIFKPAIDTRYSEEDVVSHDSHSIASTPIDSSASILLFTSEIDVVGIDEAQFFDDGLIDVCRQLANNGIRVIIAGLDMDFKGNPFGPMPQLCAIADEVSKVHAICVKCGDLASFSHRTVKNDKQVLLGETAEYEPLCRECYLRARGEDGQKI”, “not soluble”; to “MGMLGLDLLKEVPGLLEEIKALPLRLDEERFRFWLQQDYPFVEALYRYQVGLLLEAPQAHRAPLVQALMATVEELDWLLLQGASPSAPVHPVRAGYIALLEEMGRLPYAYRVVFFYFLNGLFLEAWAHHVPEEGPWAELSQHWFAPEFQAVLYDLEVLARGLWEDLDPEVVRTYLRRILEAEKATWSLLL”, “soluble”. To “MDLDADFLLLHLSDSALPTGAFAHSFGFETYMDAERITNAEEFQDWLKVLLKVQLTSSDALAMRMFYATPTVSELKRLDERLFAGTPAREIREANARMGTRMAEIVAETYSVPLIVEYLELIQHRELSGHPALALALATHSAGIDVDRAIHAHLTATVSSLIQNAVRGIPLGQMAGQRVMFAMREHIGAAVKRSANLDEIDFCSGDPGLDISQMVHETQRARLFMSLEHHHHHH” belongs “not soluble”.

With “AKYYNEPCHTFNEYLLIPGLSTVDCIPSNVNLSTPLVKFQKGQQSEINLKIPLVSAIMQSVSGEKMAIALAREGGISFIFGSQSIESQAAMVHAVKNFKDSQKRYLVGAGINTRDFRERVPALVEAGADVLCIDSSDGFSEWQKITIGWIRDKYGDKVKVGAGNIVDGEGFRYLADAGADFIKIGIGGGSICITREQKGIGRGQATAVIDVVAERNKYFEETGIYIPVCSDGGIVYDYHMTLALAMGADFIMLGRYFARFEESPTRKVTINGSVMKEYWGEGSSRARNWQRYDLGGKQKLSFEEGVDSYVPYAGKLKDNVEASLNKVKSTMCNCGALTIPQLQSKAKITLVSSVSIVEGGAHDVIVKDRINDYHPK”, the “soluble on expression in E. coli” value is “soluble”.

As to “MGSDKIHHHHHHMHYLPFIRVVMNTADEDAQMERDEWASREVMPITNWGRRPDGSEIVQYDAPMFFSFTEHSLLHQYPHMRAECHWHVDLELTYIIHGHMWYFVNGETVRLDEGQAIFVNSRQLHYGFTKDGSDCEFSCTLLNPAKMCASFEVYDRFIAPLMAENTMPYAVITDDTAPGRRLLATIRQLHAAKFGPLERSERSAEPLPADDMTLTDNTEALTVLSCFYAVVRDILAIAGSHCATSTAPHPRIVTLRKMIDYVQRYYVRPITLKQIASAGSVGRTTCASIFRESLNQSPIEFVNDVRVRAAANLLVTSSLPIATVAKQTGFSSASFFSRTFHRFMGVTPITYRTTHTKRKSEE”, the “soluble on expression in E. coli” value is given as “not soluble”. To “MSLAQSIVVVAEPSHSDLYDLLAVGNAGIRLVSAAGLSTAIGPSDPDIVILDSGTDADGGITLLGEIKALRNDLPVIFLTDSSSEEIVLKAFRKGAREYFRKPVDLHVLQHAVETILALRRMQRERRDPLKRHYSDPINLPDDLPESIGRAVMHIKSNYDCALYLDDLARAAHLSKFHFCRNFKKYIGVSPMRFMNMVKISKAETLLRRADLTISTVAYKLGFNDPSEFTRQFKSITGISPSAFRRSCLSEGHHHHHH” belongs “not soluble”; to “MQTSPLLTQLMEALRCLPGVGPKSAQRMAFTLLQRDRSGGMRLAQALTRAMSEIGHCADCRTFTEQDVCNICSNPRRQENGQICVVESPADIYAIEQTGQFSGRYFVLMGHLSPLDGIGPDDIGLDRLEQRLASEKISELILATNPTVEGEATANYIAELCAEAGVEASRIAHGVPVGGELEMVDGTTLSHSLAGRHKIIF”, “not soluble”. With “MSVIAITGSASGIGAALKELLARAGHTVIGIDRGQADIEADLSTPGGRETAVAAVLDRCGGVLDGLVCCAGVGVTAANSGLVVAVNYFGVSALLDGLAEALSRGQQPAAVIVGSIAATQPGAAELPMVEAMLAGDEARAIELAEQQGQTHLAYAGSKYAVTCLARRNVVDWAGRGVRLNVVAPGAVETPLLQASKADPRYGESTRRFVAPLGRGSEPREVAEAIAFLLGPQASFIHGSVLFVDGGMDALMRAKTF” the entry was “soluble”. With “GPGSMDPTLKELLHANLEWIFVGGKGGVGKTTTSCALATLFATTPISDAASPGGTRPRRVLLISTDPAHNLSDAFNQRFGPHPTPVKGLEESLAAMEVDPKNFTHGALMSSLTGAKSDGSASSLSAEAEADAAQHTASFARIGAVLKEAARTMPGIDEISVFAEILHYVRTLFYDLLIFDTAPTGHTLRLLALPQTLSSTFDKLMSLEGLAPMIEAASHLIGTNLGALGGACGDTAGSCEQATAAPSLSSAAPGEGSAAAASSQSRWCITADEVRSTALHWRQTMEEVQARFNDPNRTSFVCVCIAEFLSVYETERLVQELMKYNIGCDSIVVNQLVLKPSSEPPCRMCSARQKIQAKYLEQIDLLYEDFHVVKMPLLSDEVRGVPALKKFARFLQEPYSPDTHGYIDVQEPC” the entry was “not soluble”; with “SGGGGKAWPTHVVCSDSGLEVLYQSCDPLQDFGFSVEKCSKQLKSNINIRFGIILREDIKELFLDLALMSQGSSVLNFSYPICEAALPKFSFCGRRKGEQIYYAGPVNNPEFTIPQGEYQVLLELYTEKRSTVACANATIMCS”, “soluble”. Consider “MSLAALDPITPAGGGTWRFPANEPLRLDSGGVIEGLEIAYQTYGQLNADKSNAVLICHALTGDQHVASPHPTTGKPGWWQRLVGPGKPLDPARHFIICSNVIGGCMGSTGPASINPATGKTYGLSFPVITIADMVRAQAMLVSALGVETLFAVVGGSMGGMQVQQWAVDYPERMFSAVVLASASRHSAQNIAFHEVGRQAIMADPDWRGGAYAEHGVRPEKGLAVARMAAHITYLSEPALQRKFGRELQRDGLSWGFDADFQVESYLRHQGSSFVDRFDANSYLYITRAMDYFDIAASHGGVLAKAFTRARNVRFCVLSFSSDWLYPTAENRHLVRALTAAGARAAFAEIESDKGHDAFLLDEPVMDAALEGFLASAERDRGLVEGHHHHHH”, for which the “soluble on expression in E. coli” value is “soluble”.

Source of the values: the DeepSol protein solubility set.
